According to the nanobody polyreactivity screen of Harvey et al. (2022):

Test: yeast display, Sf9 membrane polyspecificity reagent, FACS + sequencing; frameworks hold sequencing errors
Outline: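 Sorting gates, low and high (top ~1%), were placed on anti-HA fluorescence to track expression and on streptavidin fluorescence to track reagent binding. A clone's polyreactivity label is taken from the gate it came out of. The reagent was 10% biotinylated, detergent-solubilized Sf9 membrane, applied for 1 hour at 4 °C to galactose-induced yeast display cells.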

Sequence | polyreactivity (PSR sort gate)
QVQLEESGRGLVQAGGSLRLSCAASGFIFYRNTMGWYRQAPGKERELVAAISVSGGSTNYADSVKGRFTISRDNAKNTVYLQINSLKPEVTAVYYCAARVRESLVYGGWDDYWGQGTQVTVSS | high polyreactivity
QVQLVESGGGLVQAGGSLRLSCAASGFIFDSYAMGWYRQAPGKERELVAAISWSGGRTYYADSVKWRFTISRDNAKNTVYLQMNSLKPEDTAVYYCNVRTKLSTSYDYWGQGTQVTVSS | high polyreactivity
QVQLVESGGGLVQAGGSLRLSCAASGRTFSRYVMGWYRQAPGKERELVATISRSGGSTFYADSVKGRFTISRDTAKNTVYLQMNSLKPEDTAVYYCNKKVQGYQVTYGYCGQGTQVTVSS | high polyreactivity
QGQLVESGGGLVQAGGSLRLSCAASGSTFYLNAMGWYRQAPGKERELVATITRRGGRTYYADSVKGRFTISRDNAKNTVYLKMNSLKPEDTAVYYCNKGGISPGDALYGYWGQGTQVTVSS | low polyreactivity
QVQLVESGGGLVQAGGSLRLSCAASGFTIYKNAMAWYRQAPGKERELVAAISGRGGSTTYADSVKGRFTISRDNAKNTVYLQMNSLKPEDTAVYYCAARFTYSYPLFGSWGQGTQVTVSS | high polyreactivity
QVQLQESGGGLVQAGGSLRPSCAASGNIFVPFKMGWYRMAPGKERELVASINRGSTTNYADSVKGRFTISRDNAKNTVYLQMISLKPEDTAVYYCAAIAYPDIPTYLDYDSDYFYWDQGTQVTVSS | high polyreactivity
QVQLVESGGGLVQAGGSLRLSCAASGFTFFYYAMGWYRQAPGKERELVASISWSGGSTYYADSVKGRFTISRDNAKNTVYLQMNSLKPEDTAVYYCAADVPFGGDYWGQGTQVTVSS | low polyreactivity
QVQLVESGGGLVQAGGSLRLSCAASGIFYRYAMGWYRQAPGKEREFVAAISSTGGSTYYADSVKGRFTISRDNAKNSVYLQMNSLKPEDTAVYYCAKRGSRSGRSDYWGQGTQVTVSS | low polyreactivity
QVQLVESGRGLVQAGGSLRLSCAASGRIFSGNAMGWYRQAPGKERELVAGITWTGGRTYYAASVKGRFTISRDNAKNTVYLQMNSLKPEDTAVYYCAARYTRWSDLMYYWGQGTQVTVSS | high polyreactivity
QVQLVESGGGLVQAGGSLRLSCAASGSIFGRYVMGWYRQAPGKERELVAAINWSGSRTYYADSVKGRFTISRDNAKNTVYLQMNSLKPEDTAVYYCAADWWSRYYYWGQGTQVTVSS | high polyreactivity
QVQLVESGGGLVQAGGSLRLSCAASGRIFLYYTMGWYRQAPGKERELVADITWRGGYTYYADSVKGRFTISRDNAKNTVYLQMNSLKPQDTAVYYFNAVSVSYKRSDYWGQGTQVTVSS | low polyreactivity
QVQLVESGGGLVQAGGSLRLSCAASGRTFGRNAMGWYRQAPGKERELVAAISSDGGRTYYADSVKGRFTISRDNAKNTVYLQMNSLKPEDTAVYYCAKQRSYSDGGYWGQGTQVTVSS | low polyreactivity
QVQLVESVGGLVQAGGSLRLSCAASGSIRSYAIGWYRQAPGKERELVAAITRSGGSTYYADSVKGRFTISRDNAKNTVYLQMISLKPEDTAVYYCAARYTYSYPLFGSWGQGTQVTVSS | high polyreactivity
QVQLVESGGGLVQAGGSLRLSCAASGIIPSYAMGWYRQAPGKERELVAGISRSGGSTYYADSVKGRFTISRDNAKNTVYLQMNSLKPEDTAVYYCAARVKVRDFKGYYWGQGTQVTVSS | high polyreactivity
PVQLVESGGGLVQAGGSLRLSCAAAGLTFPPNAMGWYRQAPGKERELVADSGGSTNYADSVKGRFTISRDNAKNTVYLQMNSLNPEDTAVYYCAVPPYSDGQWDDYWGQGTQVTVSS | low polyreactivity
QVQLVESGGCLVQAGGSLRLSCAASGRIFDRNAMGWYRQAPGKERELVARIDPGDDTNYADSVKGRFTISRDNAKNTVYLQMNSLKPEDTAVYYCATDPDYVLYRTAYYEYDYWGQGTQVTVSS | low polyreactivity
QVQLQESGGGLVQASGSLRLSCAASGNIFPDYVMGWYRLAPGKEREFVANITGGSTTNYADSVKGRFTISRDNAKNTVYLQMNSLKPEDTAVYYCAVNFGTVVLYLYWGQGTQVTVSS | high polyreactivity
QVQLVESGGGLVQAGGSLRLSCAASGRTFLYYAMGWYRQAPGKERELVARITLDGGSTNYADSVKGRFTISRDNAKNTVYLQMNSLKPEDTAVYYCAAQRGGPFPRVVDLYDYWGQGTQVTVSS | low polyreactivity
QVQLVESGGGLVQAGGSLRLRCAASGNTFRVYPMGWYRQAPGKESELVAAITWSGSRTYYADSVKGRFTISRDNAKNTVYFQINSLKPEDTAVYYCAARFVRAAYNYWGLGTQVTVSS | high polyreactivity
QVQIVDSGGGLVQAGGSLSLSCAASGSTFRGYAMGWYRQAPGKERELVAAITGSGDRTRYADSVKGRFTISRDNAKNTVYLQKNSLKPADTAVNYCAKVWPHWAYYSWGQGTQVTLSS | high polyreactivity
QVQLVESGGGLVQAGVSLRLSSAASGIIFAYYTMGWYRQAPGKERELVAAISWSGGSTYYADSVKGRFTISRDNAKNTVYLQMNSLKPEDTAVYYCAVVSRRTRLPYYYWGQGTQVTVSS | high polyreactivity
QVQHVESGGGLVQAGGSLRLSCAASGSIFLIYAMGWYRPAPGKERELVAAITGGGTTNYADSVKGRFTISRDNAKHTVYFQMNSLKPEDTAVYYCNTLYLVYLYWTSPTPSDLFDYWGQGTQVTVSS | low polyreactivity

Sequence | polyreactivity (PSR sort gate)
QVQLVESGGGLVQAGGSLRLSCAASGYTLYPNAMGRYRQAPGKERELVAAISSGSSTYADSLKGRFTISRDNAKNTVYLQMNSLKPVDTAVYYCNADARIHYDYWGQGTQVTVSS | low polyreactivity
QVQLVESGGGLVQAGGSLRLSCAASGITIFTYAMGWYRQAPGKERELVAAISGSGGSTYYADSVKGRFTISRDNAKNTVYLQMNSLKPEDTAVYSCAAEYTYGSPYDYWGQGTQVTVSS | low polyreactivity
QVQLVESCGGLIQAGGSLRLSCAASGSTFPYYAMGWYRQAPGKEREFVAAIRFSGSSTYYADSVKGRFTISRDNAMNTVFLQMNRLKPEDTAVYYCATDYWLPSYSYDYWGQGTQVTVSS | low polyreactivity
QVQLVESGGGLVQAGGSLRLSCAASGSTFKRYAMGWYRQAPGKEREFVAGISSRGSRTYYADSVKGRFTISRDNAKNTVYLQMNSLKPEDTAGYYCAVSGNHVSPPYGYWGQGTQVTVSS | high polyreactivity
HVQLVESGGGLVQAGGSLRLSCAASGRIFYIYAMGWYRQAPGKERELVAGIRSRGGSTYYADSVKGRFTISRDNAKNTVYLQMNSLKPEDTAVYYCTTEIWGVNSSGYDYWGQGTQVTVSS | low polyreactivity
QYQLVESGRGLVQAGGSLRLSCAASGSTFRSYAMGWYRQAPGKERDLVAAITSSGGRTYYADSVKGRFTISRDNAKNTVYLQMNSLKPEDTAVYYCAARTYSWGDWGQGTQVTVSS | high polyreactivity
QVQLVESGGGLVQAGGSLCLSCAASGITFLFYAMGWYRQAPGKERELVAAITYSGGSTYYADSVKGRFTISRDNAKNTVYLQMNSLKPEDTAVYYCAADVWWSYYRYDYWGQGTQVTVSS | low polyreactivity
QVQLVESGGGLVQAGGSLRLSCAASGITFQWNALGWYRQAPGTERELVAAITRSGGRTYYADSVKGRFTISRDNAKNTVYLQMYSLKPEDTAVYYCAARYWDNPYWFDYWGQGTQVTVSS | high polyreactivity
QVQLVESGGGLVQAGGSLRLSCAASGRTFGYNTMGWYRQAPGKERELVARITWSGASTYYADSVKGRFTISRDNAKNTVYLQMNSLKPEDTAVYYCNTAYTVSWRSPYDYWGQGTQVTVSS | high polyreactivity
QVQLVESGGGLVQAGGSLRLSCAASGFIFFPYTMGWYRQAPGKERELVAAITNGGSTSYADSVKGRFTISRDNAKNTVYLQMNSLKPEDTAVYYCAADLGRNLLHTFYYWGQGTQVTVSS | low polyreactivity
QVQLVESGGGLVQAGGSLRLSCAASGRTFARYARGWYRPAPGKERELVAAISSSGGSTYYADSVKGRFTISRDNAKNTVYLQMNSLKPEDTSVYYCVTYRNWWYDYWGQGTQVTVSS | high polyreactivity
QVQLGESGGGLVQAGGSLRLSCAASGSIFPDNTMGWYRPATGKEWELVAAIDGRGGTTYYADSVKGRFTISRDNAKNTVYLQMNSLKPEDTAVYYCARDIGHSARYDYWGQGTQVTVSS | low polyreactivity
QVQLVESGGGLVQAGGSLRISCAASGITFLEYAMGWYRQAPGKERELVATINSGGSTNYADSVKGRFTISRDNAKNTVYLQMNSLKQEDNAVYYCSADYGSDYTKGDYWGQGTQVTVSS | low polyreactivity
QVQLVETGGGLVQAGGSLRLSCAASGFTFPYNAMGWYRQAPGKERELVAAISSTGGITYYADSVKGRFTISRDNAKNTVYLQMNSLKPEDTAVYYCGWYDYWGQGTQVTVSS | low polyreactivity
QVQLVESGGGLVQAAGSLRLSCAASGITSRFYVMGWYRQAPGKERESVAAISTRGTSTYYADSVKGRLPISRDNAKNTVYLQMNSLKPEDTAVYYCAAVGGYPYQYPYGSWGQGSQVTVSS | high polyreactivity
QVQLVESGGGLVQAGGSLRLSCAASGSTFGWYAMGWYRQAPGKESELVAAIRTSGGDSTYYADSVKGRFTISRDNAKNTVYLQMNSLKPEDTAVYYCAKTVWWYYRYPFDYWGQGTQGTVSS | low polyreactivity
QVQLVESGGGLVQAGGSLRLSCAASGSILWENAMGWYRQAPGKERELVATISVSGGGTYYADSVKGRFTISRDNAKNTVYLQMNSLKPEDTAVYYCAAPGFPSRNGFGYWGQGTQVTVSS | low polyreactivity
QVQLVESGGGLVQAGGSLPLSCAASGITLYGYAMGWNRQAPGNERELVPAISRSGSSTYYADSVKGRFTISRDNAKNTVYLQMNILKPEDTAVYYCNVYSGRYWESHKFDSWGQGTQVTVSS | high polyreactivity
QVQLVESGGGLVQEGGSLRLSCAASGRPFYNAMGWYRPAPGKERELVAGIRWSGASTYYADSVKGRFTISRDNAKNTVYLQMNSLKPEDTAVYYCAARRHSTRLRLTSDYWGHGTQVTVSS | high polyreactivity
QVQLVESGGGLVQAGGSLRLSCAASGLIFFYYPMGWYRQAPGKEWEMVAAIRTNYADSVKGRFTISRDNAKNTVDLQMYSLKREDTADYYCAAESSQTPTSAFDYWGQGTQVTVSS | low polyreactivity
QVQLVESGGGLVQAGGSLRLSCAASGSIFNTYAMGWYRQAPGKERELVAAITWSGGSTYYADSVKGRFTISRDNAKNTVYLQRNSLKPEDTAVYDCAARQRRQSYWGQGTQVTVSS | high polyreactivity
